Reference: the nanobody polyreactivity screen of Harvey et al. (2022)

Assay: yeast display, Sf9 membrane polyspecificity reagent, FACS + sequencing; frameworks hold sequencing errors
Summary of the method: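 A nanobody's polyreactivity label depends on the gate it was sorted from. Yeast display cells were stained with 10% biotinylated, detergent-solubilized Sf9 membrane reagent for 1 hour at 4 °C, enriched on streptavidin microbeads and sorted by FACS. The low and high (top ~1%) gates were set on anti-HA fluorescence for expression and streptavidin fluorescence for reagent binding.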

Row | Sequence | polyreactivity (PSR sort gate)
1 | QVQLVESGGGLVQAGGGLRLSCSASGYIFGYTAMGWYRQAPGKERELVAAISYSGGSTYYADSVKGRFTISRDNAKNTVYLQMNSLKPVDTAVYYCAAYRKGTWPGYLGVGYDYWGQGTQVTVSS | high polyreactivity
2 | QVQLVESGGGLVQAGGILRFSCAASGSTFGLNAMGWYRQAPGQERELVAAISWSGGTTYYADSVKGRFTISRDNAKNTVYLQMNSLTPEDTAVYYCAADVYSSWGYYEVYYWGQGTQVTVSS | high polyreactivity
3 | QVQLVESGGGLVQAGGILRISCAASGFIFYPYAMGWYRQAPGKERELVATIDGGGSTYYADSVKGRFTISRDNAKNTVYLQMNSLKPEDSAVYYCDASQWSNYDNWGQGNQVTVSS | low polyreactivity
4 | QVQLVESGGGLVQAGGILRISCAASGSISSYYAMGWYRPAPGKERELVAAITSGGRTYFADSVKGRFTISRDNAKNTVYFQMNSLKQEDTAVYYCNARTARNPIKGRASDYWGQGTQVTVSS | high polyreactivity
5 | QVQLVESGGGLVQAGGILRLGCAASGSTFAWNAMGWYRPAPGKERELVATISRSGSTNYADSVKGRFTISRDNAKNTVYLQMNCLKPEVTAVYYCARDKRYYRQYYYHTRYYYWGQGTQVTVSS | high polyreactivity
6 | QVQLVESGGGLVQAGGILRLICAASGRIFKLNALGWYRQAPGKERELDAAITFSGGSTYYADSVKGRFRISRDNVNYTVYLQMNSMKPEYTGVYYCNAEFSNVELYYWGQGTHVTVSS | low polyreactivity
7 | QVQLVESGGGLVQAGGILRLSCAASGFIFQFNAMGWYRQAPGKEMEMDASISVSGGSTYYADSVKGRFTISRDNAKNTVYLQMNSLKPEDTAVYYCAATQRRYTYGHDYWGQGTQVTVSS | low polyreactivity
8 | QVQLVESGGGLVQAGGILRLSCAASGFTFGWNAMGWYRQAPGKERELVAAITSGGITNYADSVKGRFTISRDNAKNTVYLQMNSLKPEDTAVYYCNARPTSRRSWYYWKGYDYWGQGTQVTVSS | high polyreactivity
9 | QVQLVESGGGLVQAGGILRLSCAASGFTFNRNAMGWYRQAPGKERELVAAISWSGTSTYYADSVKGRFTISRDNAKTTVYLQMNSLKPEDTAVYYCAARVKGQWNTYDSWGQGTQVTVST | high polyreactivity
10 | QVQLVESGGGLVQAGGILRLSCAASGIIFSQYTMGWYRQAPGKESELVAAISYTGGRTYYADSVKGRFTISRDNAMNTVYLQMNSLKPEDTAVYYCAADFPIVWYEEYYWGQGTQVTVSS | high polyreactivity
11 | QVQLVESGGGLVQAGGILRLSCAASGITFGRNAMGWYRQAPGKERELVAAITISGGGTYYADSVKGRFTISRDNAKNTVYLQMNSLKPEDTAVYYCAADRSTVWVHYPHAGGSWGHGTQVTVSS | high polyreactivity
12 | QVQLVESGGGLVQAGGILRLSCAASGLIFYYYAMGWYRQAPGKERELVAAIRTNYADSVKGRFTISRDNAKNTVYLQMNSLKPEDTAVYYCAAESSHSPTSAFDYWGQGTQVTVSS | low polyreactivity
13 | QVQLVESGGGLVQAGGILRLSCAASGLTFRDYAMGWYRQAPGKERELVAAISWNGSSTNYADSVKGRFTISRDNAKNTVYLQMNSLKPEDTSVYYCNAYYYYRRPLEGGYWGQGTQVTVSS | low polyreactivity
14 | QVQLVESGGGLVQAGGILRLSCAASGRIFRPNAMGWYRQAPGKERELVAAISSGGSTYYADSVKGRFTLSRDNAKNSVYLQMNSLKPEDSAVYYCNAKASFWSPYDYWGQGTQVTVSS | high polyreactivity
15 | QVQLVESGGGLVQAGGILRLSCAASGRILPSNAMGWYRQAPGKERELVAGITSGGSTDYADSVKGRFTISRDNAKNTVYLQMNSLKQEDTAVYYCNKPFPYYPDGPNGYDYWGLGTQVTVSS | low polyreactivity
16 | QVQLVESGGGLVQAGGILRLSCAASGRIYEIYAMGWYRQAPGKDRELVAAISWRGVSTYYADSVKGPFTISRDNAKNNVYLQMNSLKPEDTAVYYCNKDVDYFWYVEYDYWGQGTQVTVSS | low polyreactivity
17 | QVQLVESGGGLVQAGGILRLSCAASGRTFFVYAMGWYRPAPGTEWEGVAAISNTGGRTYYADSVKGRFTISRDYAKNTVYFQMNSLKPEDTAVYYCAAPYSGPYRSYEYYWGQGTHVTVSS | low polyreactivity
18 | QVQLVESGGGLVQAGGILRLSCAASGRTFGWNAMGWYRQAPGKERELVAAISWSGTNTYYADSVKGRFTISRDNAKNTVYLQMNCLNPEDTAVYYCAARDWTGSWNGYWYWEYNYWGQGTQVTVSS | low polyreactivity
19 | QVQLVESGGGLVQAGGILRLSCAASGRTFSVNAMGWYRQAPGKERELVAAITRRGGSTYYADSVKGRFTISRDYAKNTVYLQMKSLKPEDTAVYYCAAEFVTYYSSSKRAYYYWGQGTQVTVSS | high polyreactivity
20 | QVQLVESGGGLVQAGGILRLSCAASGSIFNYYAMGWYRQAPGKEREMVAAITTSGGRTYYADSVKGRFTISRDNAKNTVYLQMNSLKPEDTAVYYCAARGYGRRAYVYRYDYWGQGTQVTVSS | high polyreactivity
21 | QVQLVESGGGLVQAGGILRLSCAASGSIFSPNAKGWYRQAPGKVRQLVAAIDFSAGSTYYADSVKGRFTISRDNAKNTVYLQMHSLKPEDTAVYYCAADYYYSYCYWFSSSYGYWGPGTQVTVSS | high polyreactivity
22 | QVQLVESGGGLVQAGGILRLSCAASGSIFVNNAMGLYRQAPGKERELVAAITSGTRTNYADSVKGRFTISRDNAKNTVYLQMNSLKPEDTAVYYCAAVKYRYAYVPPRFDYWGQGTQVTVSS | low polyreactivity

Row | Sequence | polyreactivity (PSR sort gate)
23 | QVQLVESGGGLVQAGGILRLSCAASGSIFYAYAMGWYRQAPGKERELVASITWSGASTYYADSVKGRFTISRDNAKNTVYLQMNSLKPEDTAVYYCAATDQKLSLDYSSYEYWGQGTQVTVSS | low polyreactivity
24 | QVQLVESGGGLVQAGGILRLSCAASGSIFYRYAMGWYRPAPGKERELVAAINWSGGITYYADSEKGRFTISRDNAKITFYLQMISLKPEDTAVYYCAARTHVYNWGYYYWGQGTQVTVSS | high polyreactivity
25 | QVQLVESGGGLVQAGGILRLSCAASGSKIGYYAMVWYRQAPGKERELVAAISAGDRTYYADSVKGRFTISRDNAKNTVYLQMNSLKPEDTAVYYCAAASYYQSYRYGYWGQGTQVTVSS | high polyreactivity
26 | QVQLVESGGGLVQAGGILRLSCAASGSTFARYAMGWYRQEPGKERELVAVIRSGGSTNYADSVKGRFTISRDNAKNTVYLQMNSLKPEDTAGAADQWTIHRWATYGYWGQGTQVTVSS | low polyreactivity
27 | QVQLVESGGGLVQAGGILRLSCAASGSTFAVNAMGWYRQAPGKERELVAAISTSGGSTYYADSVKGRFTISRDNAKNTVYLQMNSLKPEDTSVYDCAAGRVRRRVWYNYWGQGTQVTVSS | high polyreactivity
28 | QVQLVESGGGLVQAGGILRLSCAASGSTFAVYAMGWYRQAPGKERELVAAISRSGGRTYYADSVKGRFTISRDNAKNTVYLQMNCLKPDDTAVYYCAAPSTCSYGSDYWGPGTQVTVSS | high polyreactivity
29 | QVQLVESGGGLVQAGGILRLSCAASGSTFGDYTMGWYRHAPGKERELVAAITLTGGSTFYSDSVKGRFTISRDNAKNTVYLQMNSLKPVDTAVYYCNTDVIRWVGGTWHRYYYWGQGTQVTVSS | low polyreactivity
30 | QVQLVESGGGLVQAGGILRLSCAASGSTFGYNAMGWYRQAPGKERELVAAIRFSGGSTFYADSVKGRFTISRDNAKNTVYLQMNSLKPEDTAVYNCAAGSAYYSQRYFAYGYDSWGQGTQVTVSS | low polyreactivity
31 | QVQLVESGGGLVQAGGILRLSCAASGSTFVGYAMGWNRQAPGKERELVAAISRTGASTYYADSVKGRFTISRDNAKNTVFLQMNSLKPEDTEVYYCAYYYSIYDYWGQGTLVTVSS | high polyreactivity
32 | QVQLVESGGGLVQAGGILRLSCAASGSTFVTYTMGWYRQAPGKERELVATITTSGGSTYYADSVKGRFTISRDNAKNTVYLQMNSLKPEDTAVYYCAADWDPGYYVQYGYDYWGQGTQVTVSS | low polyreactivity
33 | QVQLVESGGGLVQAGGILRLSCAASGSTFYIYAMGWYRQAPGKERELVAAISTTDGTTYYADSVKGRFTISRDNAKNTVYLQMNSLKPEDTAVYYWAAEWFGSVQPAYDYWGQGTQVTVSS | high polyreactivity
34 | QVQLVESGGGLVQAGGILRLSCAASGSTFYYYAMGWYRQAPGKERELVAAISSSGGTTYYADSVKGRLTISRDNAKNTVYLQMNSLKAEVTAVYYCAAQRYPSSLYQRFYYWGQGTQVTVSS | high polyreactivity
35 | QVQLVESGGGLVQAGGILRLSCAASGSTLGKNAMGWYRQAPGKERELVAAISYSGGSTYYADSVKGRFTISRDNAKNTVYLQMNSLKPEDTAVYYCAAQRRYHYWGQGTQVTVSS | low polyreactivity
36 | QVQLVESGGGLVQAGGILRLSCAASGYTFWDYAMGWYRQAPGKEREFVAGISFSDGGTYYADSVKVRFTISRDNAKNTVYLQMNSLKPEDTAVYYCAVPQDSGYGVSEHYNWGQGTQVTVSS | low polyreactivity
37 | QVQLVESGGGLVQAGGILRLSCAAYGSIFPHNAMGWYRQAPGKERELVASITSRGGITYYADSVKGRFTISRDNAKNTGYLQMNSLIPEDTAVYYCAGDLYIYPYDYWGQGTQVTVSS | low polyreactivity
38 | QVQLVESGGGLVQAGGILRLSCAPSGRIFKYYGMGWYRQAPGKERELVAAIYRGSSTNYAHSVKGRFTISRDNAKNTVYLQMNSLKPEDTAVYYCAKVGWSRRYYYWGQGTQVTVSS | high polyreactivity
39 | QVQLVESGGGLVQAGGILRLSCPASGSTLDRYVMGWYRQAPGKERELVAVISQSGGSTYYADSVKGRFTISRDNAKNTVYLQINSLKPEDTAVYYCAAKRYSFAYRQYDYWGQGTQVTVSS | high polyreactivity
40 | QVQLVESGGGLVQAGGILRLSSAASGSTFTLNAMGWYRQEPGKERELVADITSGGGGTYYADSVKGRFTISRDNAKNTVYLQMNSLKPEDTAVYYCAADDFHSLLGYWYGLFDFWGQGTQVTVSS | low polyreactivity
41 | QVQLVESGGGLVQAGGILRVSCAASGRIFRFYAMGWYRQAPGKERELVADISRRGGSTYYADSVKGRFTISRDNAKNTVYLQMNSLKPEDTAVYYCNARWYRTGSTYHDDYWGQGTQVTVSS | high polyreactivity
42 | QVQLVESGGGLVQAGGILSLSCAASGRIFPDNTMGWYRQAPGKQRELVAVITYSGGSTYYADSVKGRFTISRDNAKNTVYLQMNSLNPEDTAVYYCAARDFYIWFAEVDYWGQGTLVTVSS | low polyreactivity
43 | QVQLVESGGGLVQAGGILSLSCAASGRTFCYYTMGWYRQAPGKERELVAAISSGGRTNYADSVKGRFTNSRDNAKITVYLQMISLKPEDTAVYYGATSLYYKYVERDYWGHGTQVTVSS | high polyreactivity
